Here are results for one substance from PMC6396981.

The experiment addresses MTs coated with His-mCherry-SEPT9 (10 nM) (bovine (methods) or porcine (Key Resources Table) | human) (UniProt P02550). The experiment in a line: single-molecule TIRF motility assay.

On to “KIF5C(1–560)-L12_(KIF1A)-mCit (from UniProt P56536 1-560) (domain or fragment)”, for which the fold landing rate against SEPT9-free MTs is 2 fold.
